Measured values published in publication PMC9352680, “A comprehensive thermodynamic model for RNA binding by the Saccharomyces cerevisiae Pumilio protein PUF4”.
Where a chain is given by its changes, count along the chain named. Numbers in names are those of the source.

T1: PUF4 RNA-binding domain (Saccharomyces cerevisiae, UniProt P25339 537-888)
T1 sequence: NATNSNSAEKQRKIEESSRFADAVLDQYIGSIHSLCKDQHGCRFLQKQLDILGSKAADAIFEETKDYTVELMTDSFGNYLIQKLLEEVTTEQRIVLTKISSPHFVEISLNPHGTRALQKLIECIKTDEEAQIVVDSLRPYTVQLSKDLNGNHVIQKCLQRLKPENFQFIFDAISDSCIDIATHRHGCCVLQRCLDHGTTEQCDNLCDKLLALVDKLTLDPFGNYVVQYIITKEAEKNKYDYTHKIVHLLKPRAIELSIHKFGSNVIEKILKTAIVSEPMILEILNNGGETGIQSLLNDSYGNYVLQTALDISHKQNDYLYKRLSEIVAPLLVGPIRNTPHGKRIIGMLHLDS

B1: Ic_S2_P5E.1_K5.1_C5.1_H5.1_A5.1_[A7C]_F5.1_[T8C]_[T9A]_T5.1 (ssRNA)
RNA: UUUGAUUAAUAUGAUAUCGUUCUUUCUUGUAUUCCAAUUCUUUCUCGAUAUCAUAUUAAUCUUU
B2: Ic_S2_P5E.1_K5.1_C5.1_H5.1_A5.1_[T5G]_[T6C]_[A7T]_F5.1_[T8G]_[T9G]_[A10T]_T5.1 (ssRNA)
RNA: B1 RNA with U32G, U33C, C34U, C35G, A36G, A37U
B3: Ic_S2_P5E.1_K5.1_C5.1_H5.1_A5.1_[T6C]_[A7C]_F5.1_[T8A]_[T9G]_[A10C]_T5.1 (ssRNA)
RNA: B1 RNA with U33C, C35A, A36G, A37C
B4: Ic_S2_P5E.1_K5.1_C5.1_H5.1_A5.1_[T5G]_[T6C]_[A7C]_F5.1_[T9C]_T5.1 (ssRNA)
RNA: B1 RNA with U32G, U33C, C35U, A36C
B5: Ic_S2_P5E.1_K5.1_C5.1_H5.1_A5.1_[T5A]_F5.1_[T9G]_[A10G]_T5.1 (ssRNA)
RNA: B1 RNA with U32A, C34A, C35U, A36G, A37G
B6: Ic_S2_P5E.1_K5.1_C5.1_H5.1_A5.1_[T5A]_[T6C]_[A7C]_F5.1_[T8G]_T5.1 (ssRNA)
RNA: B1 RNA with U32A, U33C, C35G, A36U
B7: Ic_S2_P5E.1_K5.1_C5.1_H5.1_A5.1_[T6C]_[A7C]_F5.1_[T9A]_[A10T]_T5.1 (ssRNA)
RNA: B1 RNA with U33C, C35U, A37U
B8: Ic_S2_P5E.1_K5.1_C5.1_H5.1_A5.1_[T5G]_[A7T]_F5.1_[T9A]_[A10T]_T5.1 (ssRNA)
RNA: B1 RNA with U32G, C34U, C35U, A37U
B9: Ic_S2_P5E.1_K5.1_C5.1_H5.1_A5.1_[T5C]_[T6G]_[A7T]_F5.1_[T8C]_[A10G]_T5.1 (ssRNA)
RNA: B1 RNA with U32C, U33G, C34U, A36U, A37G
B10: Ic_S2_P5E.1_K5.1_C5.1_H5.1_A5.1_[T5A]_[A7C]_F5.1_[T8C]_[T9G]_[A10C]_T5.1 (ssRNA)
RNA: B1 RNA with U32A, A36G, A37C
B11: Ic_S2_P5E.1_K5.1_C5.1_H5.1_A5.1_[T6A]_[A7C]_F5.1_[T8C]_[T9G]_[A10G]_T5.1 (ssRNA)
RNA: B1 RNA with U33A, A36G, A37G
B12: Ic_S2_P5E.1_K5.1_C5.1_H5.1_A5.1_[T6C]_[A7T]_F5.1_[T9C]_[A10C]_T5.1 (ssRNA)
RNA: B1 RNA with U33C, C34U, C35U, A36C, A37C
B13: Ic_S2_P5E.1_K5.1_C5.1_H5.1_A5.1_[T5C]_[T6C]_[A7T]_F5.1_[T8A]_[A10T]_T5.1 (ssRNA)
RNA: B1 RNA with U32C, U33C, C34U, C35A, A36U, A37U
B14: Ic_S2_P5E.1_K5.1_C5.1_H5.1_A5.1_[T5G]_[A7G]_F5.1_[T8C]_[T9C]_T5.1 (ssRNA)
RNA: B1 RNA with U32G, C34G, A36C
B15: Ic_S2_P5E.1_K5.1_C5.1_H5.1_A5.1_[T5C]_[A7T]_F5.1_[T8C]_[T9C]_[A10C]_T5.1 (ssRNA)
RNA: B1 RNA with U32C, C34U, A36C, A37C
B16: Ic_S2_P5E.1_K5.1_C5.1_H5.1_A5.1_[T6A]_[A7T]_F5.1_[T8C]_[T9A]_[A10G]_T5.1 (ssRNA)
RNA: B1 RNA with U33A, C34U, A37G
B17: Ic_S2_P5E.1_K5.1_C5.1_H5.1_A5.1_[A7T]_F5.1_[T9C]_[A10T]_T5.1 (ssRNA)
RNA: B1 RNA with C34U, C35U, A36C, A37U
B18: Ic_S2_P5E.1_K5.1_C5.1_H5.1_A5.1_[T5C]_[T6A]_[A7G]_F5.1_[A10G]_T5.1 (ssRNA)
RNA: B1 RNA with U32C, U33A, C34G, C35U, A36U, A37G
B19: Ic_S2_P5E.1_K5.1_C5.1_H5.1_A5.1_[T5A]_[T6A]_F5.1_[T9C]_[A10T]_T5.1 (ssRNA)
RNA: B1 RNA with U32A, U33A, C34A, C35U, A36C, A37U
B20: Ic_S2_P5E.1_K5.1_C5.1_H5.1_A5.1_[T6C]_F5.1_[T8A]_[A10G]_T5.1 (ssRNA)
RNA: B1 RNA with U33C, C34A, C35A, A36U, A37G
B21: Ic_S2_P5E.1_K5.1_C5.1_H5.1_A5.1_[T5C]_[A7T]_F5.1_[T8G]_[A10T]_T5.1 (ssRNA)
RNA: B1 RNA with U32C, C34U, C35G, A36U, A37U
B22: Ic_S2_P5E.1_K5.1_C5.1_H5.1_A5.1_[T5A]_[A7T]_F5.1_[T8A]_[A10C]_T5.1 (ssRNA)
RNA: B1 RNA with U32A, C34U, C35A, A36U, A37C
B23: Ic_S2_P5E.1_K5.1_C5.1_H5.1_A5.1_[T5C]_[A7C]_F5.1_[T8C]_[T9C]_[A10T]_T5.1 (ssRNA)
RNA: B1 RNA with U32C, A36C, A37U
B24: Ic_S2_P5E.1_K5.1_C5.1_H5.1_A5.1_[T5A]_[T6C]_[A7G]_F5.1_[T8G]_[T9C]_[A10C]_T5.1 (ssRNA)
RNA: B1 RNA with U32A, U33C, C34G, C35G, A36C, A37C
B25: Ic_S2_P5E.1_K5.1_C5.1_H5.1_A5.1_[T5A]_[T6C]_F5.1_[T8C]_[T9C]_T5.1 (ssRNA)
RNA: B1 RNA with U32A, U33C, C34A, A36C
B26: Ic_S2_P5E.1_K5.1_C5.1_H5.1_A5.1_[T5C]_[A7G]_F5.1_[T8G]_T5.1 (ssRNA)
RNA: B1 RNA with U32C, C34G, C35G, A36U
B27: Ic_S2_P5E.1_K5.1_C5.1_H5.1_A5.1_[T6C]_[A7C]_F5.1_[T8C]_T5.1 (ssRNA)
RNA: B1 RNA with U33C, A36U
B28: Ic_S2_P5E.1_K5.1_C5.1_H5.1_A5.1_[T5C]_[A7C]_F5.1_[A10T]_T5.1 (ssRNA)
RNA: B1 RNA with U32C, C35U, A36U, A37U
B29: Ic_S2_P5E.1_K5.1_C5.1_H5.1_A5.1_[T6C]_F5.1_[T8G]_[A10C]_T5.1 (ssRNA)
RNA: B1 RNA with U33C, C34A, C35G, A36U, A37C
B30: Ic_S2_P5E.1_K5.1_C5.1_H5.1_A5.1_[T5C]_[T6A]_[A7T]_F5.1_[T8A]_[T9G]_[A10T]_T5.1 (ssRNA)
RNA: B1 RNA with U32C, U33A, C34U, C35A, A36G, A37U
B31: Ic_S2_P5E.1_K5.1_C5.1_H5.1_A5.1_[T6C]_[A7T]_F5.1_[T9A]_[A10T]_T5.1 (ssRNA)
RNA: B1 RNA with U33C, C34U, C35U, A37U
B32: Ic_S2_P5E.1_K5.1_C5.1_H5.1_A5.1_[T6C]_[A7G]_F5.1_[T8C]_[T9C]_[A10T]_T5.1 (ssRNA)
RNA: B1 RNA with U33C, C34G, A36C, A37U
B33: Ic_S2_P5E.1_K5.1_C5.1_H5.1_A5.1_[T5G]_[A7G]_F5.1_[T8G]_[T9C]_[A10C]_T5.1 (ssRNA)
RNA: B1 RNA with U32G, C34G, C35G, A36C, A37C
B34: Ic_S2_P5E.1_K5.1_C5.1_H5.1_A5.1_[T5C]_[T6A]_[A7G]_F5.1_[T9G]_[A10C]_T5.1 (ssRNA)
RNA: B1 RNA with U32C, U33A, C34G, C35U, A36G, A37C
B35: Ic_S2_P5E.1_K5.1_C5.1_H5.1_A5.1_[T5G]_F5.1_[T8C]_[T9C]_[A10T]_T5.1 (ssRNA)
RNA: B1 RNA with U32G, C34A, A36C, A37U
B36: Ic_S2_P5E.1_K5.1_C5.1_H5.1_A5.1_[T5A]_[T6C]_[A7C]_F5.1_[T8A]_[T9C]_[A10C]_T5.1 (ssRNA)
RNA: B1 RNA with U32A, U33C, C35A, A36C, A37C
B37: Ic_S2_P5E.1_K5.1_C5.1_H5.1_A5.1_[T6A]_[A7T]_F5.1_[T8A]_[T9C]_[A10G]_T5.1 (ssRNA)
RNA: B1 RNA with U33A, C34U, C35A, A36C, A37G
B38: Ic_S2_P5E.1_K5.1_C5.1_H5.1_A5.1_[T5A]_[A7C]_F5.1_[T9A]_T5.1 (ssRNA)
RNA: B1 RNA with U32A, C35U
B39: Ic_S2_P5E.1_K5.1_C5.1_H5.1_A5.1_[T5G]_[T6C]_[A7T]_F5.1_[T8C]_[T9G]_[A10T]_T5.1 (ssRNA)
RNA: B1 RNA with U32G, U33C, C34U, A36G, A37U
B40: Ic_S2_P5E.1_K5.1_C5.1_H5.1_A5.1_[T5A]_[A7T]_F5.1_[T8C]_[T9A]_[A10C]_T5.1 (ssRNA)
RNA: B1 RNA with U32A, C34U, A37C
B41: Ic_S2_P5E.1_K5.1_C5.1_H5.1_A5.1_[T5G]_[T6C]_F5.1_[T8C]_[A10T]_T5.1 (ssRNA)
RNA: B1 RNA with U32G, U33C, C34A, A36U, A37U

Molecular target: T1, PUF4 RNA-binding domain
Assay: Mg; RNA-MaP; 20 mM Na-HEPES pH 7.4, 30 mM KOAc, 0.75 mM MgCl2, 0.1% Tween-20, 5% glycerol, 0.1 mg/mL BSA, 2 mM DTT; 25 C; 0.0125-409.6 nM protein
Conditions: tags: N-His6-TEV cleaved; C-SNAP kept, Cy3B-labelled; label: tethered on chip by stalled RNA polymerase

Binder | Kd
B1 | 622 nM
B2 | 679 nM
B3 | 1560 nM
B4 | 74.8 nM
B5 | 75.2 nM
B6 | 12.9 nM
B7 | 1.14 nM
B8 | 1.93 nM
B9 | 1250 nM
B10 | 1200 nM
B11 | 82 nM
B12 | 14 nM
B13 | 9.6 nM
B14 | 983 nM
B15 | 149 nM
B16 | 24.5 nM
B17 | 16.4 nM
B18 | 9.39 nM
B19 | 81.5 nM
B20 | 122 nM
B21 | 28.3 nM
B22 | 113 nM
B23 | 104 nM

Binder | Kd
B24 | > 2300 nM
B25 | 278 nM
B26 | 38.2 nM
B27 | 9.09 nM
B28 | 8.52 nM
B29 | 218 nM
B30 | 5.17 nM
B31 | 1.53 nM
B32 | 463 nM
B33 | > 2300 nM
B34 | 9.13 nM
B35 | 413 nM
B36 | 1060 nM
B37 | 8.49 nM
B38 | 8.11 nM
B39 | 275 nM
B40 | 599 nM
B41 | 99.7 nM
UCUCUUCGUAUAUUUUCUCUU (ssRNA) [Ib_S1_P4E.1_K4.1_C4.1_H4.1_[T1C]_A4.1_F4.1_[A9T]_T4.1] | 1420 nM
UCUCUUUUUAUAUUGUCUCUU (ssRNA) [Ib_S1_P4E.1_K4.1_C4.1_H4.1_[G2T]_A4.1_F4.1_[A9G]_T4.1] | > 2300 nM
UCUCUUCGUAUAUUCUCUCUU (ssRNA) [Ib_S1_P4E.1_K4.1_C4.1_H4.1_[T1C]_A4.1_F4.1_[A9C]_T4.1] | 1140 nM
UCUCUUGGUAUAUUUUCUCUU (ssRNA) [Ib_S1_P4E.1_K4.1_C4.1_H4.1_[T1G]_A4.1_F4.1_[A9T]_T4.1] | 1210 nM
